Tests used:
[1] = molecular target: T1, synthetic peptide of stem helix (1141-1161) of SARS-CoV-2 WT S with biotin at C terminus (SARS-CoV-2, UniProt P0DTC2); experiment: BLI; […] (Gator Bio); antibody at 1 to 100 nM in 100 mM HEPES, 500 mM NaCl, 0.005% Tween20, 0.1% BSA; […]; conditions: both partners purified
T1 construct: source: synthetic peptide

[2] = molecular target: Myc-tagged S fragment of human coronavirus (HCoV)-OC43 (HCoV-OC43 (GenBank L14643.1), UniProt P36334); experiment: Western blot; conditions: one partner purified
Myc-tagged S fragment of human coronavirus (HCoV)-OC43, sequence (P36334 whole entry, looked up, the tested form may be a part, one chain of several): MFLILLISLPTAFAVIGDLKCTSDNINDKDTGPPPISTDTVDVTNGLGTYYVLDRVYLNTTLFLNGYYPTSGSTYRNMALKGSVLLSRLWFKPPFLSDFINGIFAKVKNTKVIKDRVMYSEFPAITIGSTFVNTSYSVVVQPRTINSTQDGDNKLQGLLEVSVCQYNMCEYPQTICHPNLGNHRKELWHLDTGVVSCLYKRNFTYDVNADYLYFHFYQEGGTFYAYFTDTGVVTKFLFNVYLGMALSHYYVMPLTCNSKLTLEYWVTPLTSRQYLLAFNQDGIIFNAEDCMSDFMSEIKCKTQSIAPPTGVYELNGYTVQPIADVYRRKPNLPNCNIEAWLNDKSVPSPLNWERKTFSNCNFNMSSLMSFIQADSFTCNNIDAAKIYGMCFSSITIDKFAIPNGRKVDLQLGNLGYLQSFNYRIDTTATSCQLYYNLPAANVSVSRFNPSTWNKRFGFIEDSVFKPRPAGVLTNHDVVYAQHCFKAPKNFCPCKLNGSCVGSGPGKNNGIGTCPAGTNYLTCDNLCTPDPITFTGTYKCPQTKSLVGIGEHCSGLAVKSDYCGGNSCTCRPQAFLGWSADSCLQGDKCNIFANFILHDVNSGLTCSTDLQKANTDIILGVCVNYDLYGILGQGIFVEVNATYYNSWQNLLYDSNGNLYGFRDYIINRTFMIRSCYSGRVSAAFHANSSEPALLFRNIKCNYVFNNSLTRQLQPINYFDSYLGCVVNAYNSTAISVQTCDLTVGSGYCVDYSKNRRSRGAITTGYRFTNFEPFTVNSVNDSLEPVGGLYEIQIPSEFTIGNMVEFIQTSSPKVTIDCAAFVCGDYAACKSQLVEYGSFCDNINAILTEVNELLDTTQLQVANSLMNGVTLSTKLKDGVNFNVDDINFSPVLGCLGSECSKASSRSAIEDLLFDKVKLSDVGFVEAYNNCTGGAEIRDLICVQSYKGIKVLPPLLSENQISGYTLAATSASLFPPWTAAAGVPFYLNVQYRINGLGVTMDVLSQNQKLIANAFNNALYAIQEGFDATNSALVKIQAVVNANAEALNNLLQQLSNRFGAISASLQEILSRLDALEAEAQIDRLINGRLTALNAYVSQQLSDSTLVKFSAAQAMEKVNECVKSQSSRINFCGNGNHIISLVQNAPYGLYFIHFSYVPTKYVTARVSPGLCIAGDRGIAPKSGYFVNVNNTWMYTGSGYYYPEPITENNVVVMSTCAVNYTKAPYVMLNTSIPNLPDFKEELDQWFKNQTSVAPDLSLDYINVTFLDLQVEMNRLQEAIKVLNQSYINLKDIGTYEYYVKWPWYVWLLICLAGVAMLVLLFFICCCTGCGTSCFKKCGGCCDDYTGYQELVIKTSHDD

[3] = molecular target: Myc-tagged S fragment of mouse hepatitis virus (MHV) (Mouse hepatitis virus, ATCC VR-764 …, UniProt P11224); experiment: Western blot; conditions: one partner purified
Myc-tagged S fragment of mouse hepatitis virus (MHV), sequence (P11224 whole entry, looked up, the tested form may be a part): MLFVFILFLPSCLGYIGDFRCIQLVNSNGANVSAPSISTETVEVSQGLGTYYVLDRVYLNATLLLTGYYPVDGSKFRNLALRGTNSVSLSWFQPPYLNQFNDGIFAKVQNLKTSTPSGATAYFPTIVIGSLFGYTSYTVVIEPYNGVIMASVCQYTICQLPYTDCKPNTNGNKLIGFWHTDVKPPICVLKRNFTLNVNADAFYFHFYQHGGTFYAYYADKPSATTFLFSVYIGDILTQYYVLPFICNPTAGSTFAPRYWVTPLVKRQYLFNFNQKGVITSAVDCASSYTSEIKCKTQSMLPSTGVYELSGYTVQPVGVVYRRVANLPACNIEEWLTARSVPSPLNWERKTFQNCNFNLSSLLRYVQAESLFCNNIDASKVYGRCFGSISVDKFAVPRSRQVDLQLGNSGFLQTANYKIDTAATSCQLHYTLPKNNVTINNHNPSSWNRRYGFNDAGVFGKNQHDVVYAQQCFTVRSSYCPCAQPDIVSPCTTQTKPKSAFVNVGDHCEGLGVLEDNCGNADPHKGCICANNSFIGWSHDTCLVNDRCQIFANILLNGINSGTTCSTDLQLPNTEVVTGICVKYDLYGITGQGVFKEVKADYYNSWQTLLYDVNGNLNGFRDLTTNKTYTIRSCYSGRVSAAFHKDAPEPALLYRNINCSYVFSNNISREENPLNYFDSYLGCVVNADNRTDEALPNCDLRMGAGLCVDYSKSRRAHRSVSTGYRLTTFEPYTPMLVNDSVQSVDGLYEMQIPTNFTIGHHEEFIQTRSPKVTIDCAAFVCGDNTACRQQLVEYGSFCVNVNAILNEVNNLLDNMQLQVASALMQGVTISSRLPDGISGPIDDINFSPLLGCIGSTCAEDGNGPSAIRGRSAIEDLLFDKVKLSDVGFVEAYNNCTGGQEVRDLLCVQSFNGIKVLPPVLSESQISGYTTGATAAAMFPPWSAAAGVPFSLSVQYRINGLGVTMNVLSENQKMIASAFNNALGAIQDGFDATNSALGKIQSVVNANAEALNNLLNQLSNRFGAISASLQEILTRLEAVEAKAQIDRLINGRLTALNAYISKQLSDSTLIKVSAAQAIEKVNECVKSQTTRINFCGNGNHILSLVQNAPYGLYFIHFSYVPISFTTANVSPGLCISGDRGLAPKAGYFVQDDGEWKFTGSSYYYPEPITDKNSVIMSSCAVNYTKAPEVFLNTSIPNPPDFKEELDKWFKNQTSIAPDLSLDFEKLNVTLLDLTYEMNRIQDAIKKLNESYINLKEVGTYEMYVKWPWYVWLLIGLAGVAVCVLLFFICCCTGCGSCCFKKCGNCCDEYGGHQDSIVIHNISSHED

[4] = molecular target: T2, Myc-tagged S fragment of MERS-CoV (MERS-CoV, isolate of GenBank KT357812.1, UniProt A0A024E0Q9); experiment: Western blot; conditions: one partner purified
T2 construct: source: 293FT cells, transiently transfected, in lysate (RIPA buffer)

[5] = molecular target: Myc-tagged S fragment of bat coronavirus (BtCoV)-HKU5 (BtCoV-HKU5 (GenBank AGP04943.1), UniProt S4X425); experiment: Western blot; conditions: one partner purified

B1: S2P6 recombinant mAb with human IgG1 constant region (antibody, V domains shown)
VH: EVQLVQSGAEVKKPGASVKVSCKASGYTFTSQYMHWVRQAPGQGLEWIGIINPSGVHTSYAQKFQGRVTLTRDTSTSTLYMELSSLRSEDTAVYYCARGSPKGAFDYWGQGTLVTVSS
VL: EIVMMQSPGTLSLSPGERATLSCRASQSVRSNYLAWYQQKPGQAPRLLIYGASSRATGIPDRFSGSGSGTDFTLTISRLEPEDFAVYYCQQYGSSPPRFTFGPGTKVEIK
notes: also called mAb S2P6
- Kd [1]: < 1 pM
- binding result [2]: binds
- binding result [3]: binds
- binding result [4]: binds
- binding result [5]: binds
